The values that follow come from the supplement of paper PMC11246515.

This data set is described as follows: total protein half-life in vivo (active degradation + dilution); higher = more stable protein.
[1] abbreviates: E. coli NCM3722 delta-clpP delta-lon delta-hslV, growth: N-lim chemostat, doubling time 6 h.
[2] abbreviates: E. coli NCM3722 delta-clpP, growth: N-lim chemostat, doubling time 6 h.
The mark [3] stands for this setting: E. coli NCM3722 delta-hslV, growth: N-lim chemostat, doubling time 6 h.
The mark [4] stands for this setting: E. coli NCM3722 delta-lon, growth: N-lim chemostat, doubling time 6 h.
The mark [5] stands for this setting: E. coli NCM3722 delta-smpB, growth: N-lim chemostat, doubling time 6 h.
Setting [6] is: wild type E. coli NCM3722, growth: C-lim chemostat, doubling time 3 h.
[7] abbreviates: wild type E. coli NCM3722, growth: C-lim chemostat, doubling time 6 h.
Where [8] appears, read: wild type E. coli NCM3722, growth: C-lim chemostat, doubling time 12 h.
[9] abbreviates: wild type E. coli NCM3722, growth: N-lim chemostat, doubling time 6 h.
Where [10] appears, read: wild type E. coli NCM3722, growth: N-lim chemostat, doubling time 12 h.
Setting [11] is: wild type E. coli NCM3722, growth: P-lim chemostat, doubling time 6 h.
The mark [12] stands for this setting: wild type E. coli NCM3722, growth: P-lim chemostat, doubling time 12 h.

± gives the standard deviation of the averaged measurements.

With “MSKLDLNALNELPKVDRILALAETNAELEKLDAEGRVAWALDNLPGEYVLSSSFGIQAAVSLHLVNQIRPDIPVILTDTGYLFPETYRFIDELTDKLKLNLKVYRATESAAWQEARYGKLWEQGVEGIEKYNDINKVEPMNRALKELNAQTWFAGLRREQSGSRANLPVLAIQRGVFKVLPIIDWDNRTIYQYLQKHGLKYHPLWDEGYLSVGDTHTTRKWEPGMAEEETRFFGLKRECGLHEG”, the “total protein half-life in vivo” value runs as follows: under setting [1], 4.38 ± 0.8 h; under setting [2], 4.21 ± 0.56 h; under setting [3], 1.29 ± 0.27 h; under setting [4], 1.64 ± 0.023 h; under setting [5], 1.37 ± 0.087 h; under setting [6], 2.11 ± 0.095 h. The “total protein half-life in vivo” value runs as follows: under setting [7], 2.91 ± 0.58 h; under setting [8], 4.05 ± 0.29 h; under setting [9], 1.47 ± 0.077 h; under setting [10], 1.721 ± 0.012 h; under setting [11], 3.28 ± 0.37 h; under setting [12], 6.15 ± 0.27 h.

Turning to “MRLFIAEKPSLARAIADVLPKPHRKGDGFIECGNGQVVTWCIGHLLEQAQPDAYDSRYARWNLADLPIVPEKWQLQPRPSVTKQLNVIKRFLHEASEIVHAGDPDREGQLLVDEVLDYLQLAPEKRQQVQRCLINDLNPQAVERAIDRLRSNSEFVPLCVSALARARADWLYGINMTRAYTILGRNAGYQGVLSVGRVQTPVLGLVVRRDEEIENFVAKDFFEVKAHIVTPADERFTAIWQPSEACEPYQDEEGRLLHRPLAEHVVNRISGQPAIVTSYNDKRESESAPLPFSLSALQIEAAKRFGLSAQNVLDICQKLYETHKLITYPRSDCRYLPEEHFAGRHAVMNAISVHAPDLLPQPVVDPDIRNRCWDDKKVDAHHAIIPTARSSAINLTENEAKVYNLIARQYLMQFCPDAVFRKCVIELDIAKGKFVAKARFLAEAGWRTLLGSKERDEENDGTPLPVVAKGDELLCEKGEVVERQTQPPRHFTDATLLSAMTGIARFVQDKDLKKILRATDGLGTEATRAGIIELLFKRGFLTKKGRYIHSTDAGKALFHSLPEMATRPDMTAHWESVLTQISEKQCRYQDFMQPLVGTLYQLIDQAKRTPVRQFRGIVAPGSGGSADKKKAAPRKRSAKKSPPADEVGSGAIA”, the “total protein half-life in vivo” value under setting [1] was 5.31 ± 0.35 h; the “total protein half-life in vivo” value under setting [2] is 2.48 ± 0.14 h; the “total protein half-life in vivo” value under setting [3] is 1.843 ± 0.0066 h; the “total protein half-life in vivo” value under setting [4] stood at 4.39 ± 0.75 h; the “total protein half-life in vivo” value under setting [5] was 1.97 ± 0.14 h; the “total protein half-life in vivo” value under setting [6] stood at 1.65 ± 0.098 h. The “total protein half-life in vivo” value runs as follows: under setting [7], 3.12 ± 0.038 h; under setting [8], 3.27 ± 0.57 h; under setting [9], 2.32 ± 0.17 h; under setting [10], 3.255 ± 0.0094 h; under setting [11], 2.23 ± 0.41 h; under setting [12], 4.46 ± 1.1 h.

With “MAGINLNKKLWRIPQQGMVRGVCAGIANYFDVPVKLVRILVVLSIFFGLALFTLVAYIILSFALDPMPDNMAFGEQLPSSSELLDEVDRELAASETRLREMERYVTSDTFTLRSRFRQL [P0AFN2]”, the “total protein half-life in vivo” value was 5.469 ± 0.044 h under setting [1]; over 8 h under setting [2]; 5.48 ± 0.47 h under setting [3]; 4.53 ± 0.38 h under setting [5]; 2.498 ± 0.015 h under setting [6]; 3.81 ± 0.91 h under setting [7]. Also, the “total protein half-life in vivo” value is, setting by setting: under setting [8], 6.7 ± 3.6 h; under setting [9], 4.862 ± 0.037 h; under setting [10], 9.24 ± 0.17 h; under setting [11], 7.55 h; under setting [12], 10 ± 0.79 h.

On to “MMILSILATVVLLGALFYHRVSLFISSLILLAWTAALGVAGLWSAWVLVPLAIILVPFNFAPMRKSMISAPVFRGFRKVMPPMSRTEKEAIDAGTTWWEGDLFQGKPDWKKLHNYPQPRLTAEEQAFLDGPVEEACRMANDFQITHELADLPPELWAYLKEHRFFAMIIKKEYGGLEFSAYAQSRVLQKLSGVSGILAITVGVPNSLGPGELLQHYGTDEQKDHYLPRLARGQEIPCFALTSPEAGSDAGAIPDTGIVCMGEWQGQQVLGMRLTWNKRYITLAPIATVLGLAFKLSDPEKLLGGAEDLGITCALIPTTTPGVEIGRRHFPLNVPFQNGPTRGKDVFVPIDYIIGGPKMAGQGWRMLVECLSVGRGITLPSNSTGGVKSVALATGAYAHIRRQFKISIGKMEGIEEPLARIAGNAYVMDAAASLITYGIMLGEKPAVLSAIVKYHCTHRGQQSIIDAMDITGGKGIMLGQSNFLARAYQGAPIAITVEGANILTRSMMIFGQGAIRCHPYVLEEMEAAKNNDVNAFDKLLFKHIGHVGSNKVRSFWLGLTRGLTSSTPTGDATKRYYQHLNRLSANLALLSDVSMAVLGGSLKRRERISARLGDILSQLYLASAVLKRYDDEGRNEADLPLVHWGVQDALYQAEQAMDDLLQNFPNRVVAGLLNVVIFPTGRHYLAPSDKLDHKVAKILQVPNATRSRIGRGQYLTPSEHNPVGLLEEALVDVIAADPIHQRICKELGKNLPFTRLDELAHNALVKGLIDKDEAAILVKAEESRLRSINVDDFDPEELATKPVKLPEKVRKVEAA”, for which the “total protein half-life in vivo” value by setting is: under setting [1], 6.66 ± 0.19 h; under setting [2], 5.65 ± 0.067 h; under setting [3], 2.2 ± 0.21 h; under setting [4], 2.48 ± 0.52 h; under setting [5], 1.82 ± 0.079 h; under setting [6], 1.43 ± 0.11 h. Moreover, the “total protein half-life in vivo” value was determined as 1.86 ± 0.12 h under setting [7]; 2.9 ± 0.51 h under setting [8]; 2.2 ± 0.1 h under setting [9]; 3.64 ± 0.49 h under setting [10]; 2.01 ± 0.24 h under setting [11]; 3.65 ± 0.59 h under setting [12].

Regarding “MTVETQLNPTQPVNQQIYRILRRDIVHCLIAPGTPLSEKEVSVRFNVSRQPVREAFIKLAENGLIQIRPQRGSYVNKISMAQVRNGSFIRQAIECAVARRAASMITESQCYQLEQNLHQQRIAIERKQLDDFFELDDNFHQLLTQIADCQLAWDTIENLKATVDRVRYMSFDHVSPPEMLLRQHLDIFSALQKRDGDAVERAMTQHLQEISESVRQIRQENSDWFSEE [P0ACM2]”, the “total protein half-life in vivo” value is, setting by setting: under setting [1], 6.15 ± 0.24 h; under setting [2], 7.72 h; under setting [3], 5.98 ± 0.4 h; under setting [4], 5.9 ± 0.9 h; under setting [5], 4.12 ± 1.4 h; under setting [6], 3.42 ± 0.53 h. Also, the “total protein half-life in vivo” value under setting [7] amounted to 6.44 ± 1.2 h; the “total protein half-life in vivo” value under setting [8] worked out at 10.2 ± 0.65 h; the “total protein half-life in vivo” value under setting [9] is 5.71 ± 0.13 h; the “total protein half-life in vivo” value under setting [10] was 11.7 ± 1.3 h; the “total protein half-life in vivo” value under setting [11] amounted to 5.18 ± 0.51 h; the “total protein half-life in vivo” value under setting [12] was found to be 9.7 ± 1.7 h.

Take “MIQSQINRNIRLDLADAILLSKAKKDLSFAEIADGTGLAEAFVTAALLGQQALPADAARLVGAKLDLDEDSILLLQMIPLRGCIDDRIPTDPTMYRFYEMLQVYGTTLKALVHEKFGDGIISAINFKLDVKKVADPEGGERAVITLDGKYLPTKPF”: the “total protein half-life in vivo” value is 5.03 ± 0.21 h under setting [1]; 5.12 h under setting [4]; 5.48 h under setting [7]; 10.6 ± 0.58 h under setting [8]; 3.64 h under setting [9]; 11.9 h under setting [10]. Under setting [12], the “total protein half-life in vivo” value was 11.1 h.

With “MKRSISFRPTLLALVLATNFPVAHAAVPKDMLVIGKAADPQTLDPAVTIDNNDWTVTYPSYQRLVQYKTDGDKGSTDVEGDLASSWKASDDQKEWTFTLKDNAKFADGTPVTAEAVKLSFERLLKIGQGPAEAFPKDLKIDAPDEHTVKFTLSQPFAPFLYTLANDGASIINPAVLKEHAADDARGFLAQNTAGSGPFMLKSWQKGQQLVLVPNPHYPGNKPNFKRVSVKIIGESASRRLQLSRGDIDIADALPVDQLNALKQENKVNVAEYPSLRVTYLYLNNSKAPLNQADLRRAISWSTDYQGMVNGILSGNGKQMRGPIPEGMWGYDATAMQYNHDETKAKAEWDKVTSKPTSLTFLYSDNDPNWEPIALATQSSLNKLGIIVKLEKLANATMRDRVGKGDYDIAIGNWSPDFADPYMFMNYWFESDKKGLPGNRSFYENSEVDKLLRNALATTDQTQRTRDYQQAQKIVIDDAAYVYLFQKNYQLAMNKEVKGFVFNPMLEQVFNINTMSK”, the “total protein half-life in vivo” value is 4.61 ± 0.059 h under setting [1]; 5.72 ± 1.4 h under setting [2]; 5 ± 0.15 h under setting [3]; 5.74 ± 0.097 h under setting [4]; 5.02 ± 0.13 h under setting [5]; 2.73 ± 0.04 h under setting [6]. For the same sequence, the “total protein half-life in vivo” value by setting is: under setting [7], 4.77 ± 0.049 h; under setting [8], 7.85 ± 0.62 h; under setting [9], 5.26 ± 0.5 h; under setting [10], 7.37 ± 0.29 h; under setting [12], 12.42 ± 0.093 h.
